Experimental data reported in PMC11092868, “Mapping Novel Frataxin Mitochondrial Networks Through Protein- Protein Interactions” (Research Square, 2024).

B1: Peroxiredoxin 3, endogenous human (natural protein, UniProt P30048 62-256, looked up)
chain: APAVTQHAPYFKGTAVVNGEFKDLSLDDFKGKYLVLFFYPLDFTFVCPTEIVAFSDKANEFHDVNCEVVAVSVDSHFSHLAWINTPRKNGGLGHMNIALLSDLTKQISRDYGVLLEGSGLALRGLFIIDPNGVIKHLSVNDLPVGRSVEETLRLVKAFQYVETHGEVCPANWTPDSPTIKPSPAASKEYFQKVNQ
notes: Peroxiredoxin 3, mitochondrial, human; also called Prdx3; PRDX3; source: endogenous: A549 cells (BioID); human lymphoblast lysate fractions (co-IP); human dermal fibroblast lysate (redox blot)
B2: Peroxiredoxin 3, endogenous mouse (natural protein, UniProt P20108 63-257, looked up)
chain: TPAVTQHAPYFKGTAVVNGEFKELSLDDFKGKYLVLFFYPLDFTFVCPTEIVAFSDKANEFHDVNCEVVAVSVDSHFSHLAWINTPRKNGGLGHMNITLLSDITKQISRDYGVLLESAGIALRGLFIIDPNGVVKHLSVNDLPVGRSVEETLRLVKAFQFVETHGEVCPANWTPESPTIKPSPTASKEYFEKVHQ
notes: Peroxiredoxin 3, mitochondrial, mouse; also called Prdx3; source: endogenous, mouse cerebellum and heart lysates

Target: the molecule itself
Experiment: non-reducing SDS-PAGE and immunoblot after NEM alkylation; lysis in alkylation buffer with 100 mM N-ethylmaleimide and 10 ug/mL catalase; oxidized dimers against reduced monomers; with or without beta-mercaptoethanol in Laemmli buffer

Row | Protein | stoichiometry N
1 | B1 | 2
2 | B2 | 2
